Changes are numbered by the printed parent chain. In names and notes the source's numbering stands.
Tests used:
Test in all cases: fluorescence polarisation
SipD^t V323K = target: T1, SipD^t V323K (Salmonella, UniProt Q56026 101-343, V323K)
T1 sequence: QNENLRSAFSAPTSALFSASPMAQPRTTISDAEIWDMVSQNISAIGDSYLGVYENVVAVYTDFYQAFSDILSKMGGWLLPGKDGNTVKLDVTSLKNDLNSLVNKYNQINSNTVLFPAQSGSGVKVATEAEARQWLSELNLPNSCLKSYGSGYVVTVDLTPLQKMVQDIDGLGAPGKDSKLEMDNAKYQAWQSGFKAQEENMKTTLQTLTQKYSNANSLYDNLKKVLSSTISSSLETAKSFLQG

SipD^t S148E = target: T2, SipD^t S148E (Salmonella, UniProt Q56026 101-343, S148E)
T2 sequence: T1 sequence with S48E, K223V

SipD^t V157K = target: T3, SipD^t V157K (Salmonella, UniProt Q56026 101-343, V157K)
T3 sequence: T1 sequence with V57K, K223V

[1] = target: T4, SipD^t (truncated form of SipD lacking the N-terminal alpha-helical hairpin, residues 101-343) (Salmonella, UniProt Q56026 101-343)
T4 sequence: T1 sequence with K223V

SipD^t D320R = target: T5, SipD^t D320R (Salmonella, UniProt Q56026 101-343, D320R)
T5 sequence: T1 sequence with D220R, K223V

SipD^t S313E = target: T6, SipD^t S313E (Salmonella, UniProt Q56026 101-343, S313E)
T6 sequence: T1 sequence with S213E, K223V

B1: PrgI V65A/V67A/L31C labelled with Alexa Fluor 488-C5-maleimide (natural protein)
chain: MATPWSGYLDDVSAKFDTGVDNLQTQVTEACDKLAAKPSDPALLAAYQSKLSEYNLYRNAQSNTAKAFKDIDAAIIQNFR
modifications: Alexa Fluor 488-C5-maleimide on the cysteine of L31C
- binding result (SipD^t V323K): binds
- Kd (SipD^t S148E): 189 ± 20 µM
- binding result (SipD^t V157K): binds
- Kd [1]: 108 ± 10 µM
- binding result (SipD^t D320R): binds
- binding result (SipD^t S313E): binds

Reference: paper PMC4108505 (Journal of molecular biology, 2014)
